Reference: publication PMC6437178

Target: engineered Salmo salar Ctr1 crystallization construct sCtr1_(cryst) (Salmo salar | not stated)
Test: crystal structure; hanging-drop vapor diffusion at 20 °C; 26-28% PEG 400, 50 mM zinc acetate, 50 mM sodium cacodylate pH 5.9; protein in CYMAL-5; Cu^+-free (3.0 Å) and Cu^+-bound (3.2 Å) states; trimer on the crystallographic three-fold axis

Substance: engineered Salmo salar Ctr1 crystallization construct sCtr1_(cryst) (from UniProt A0A1S3KYH5 41-93; A0A1S3KYH5 121-184)
- stoichiometry N: 3
